Results from patent US12576154B2, “Conjugates of PSMA-binding moieties with cytotoxic agents” (PHILOCHEM AG, priority 2022, dated 2026).

Columns and labels:
Assay type in all cases: in vivo, mice
[1] = system: HT1080.hPSMA tumor; assay: MMAE release from conjugates in HT1080.hPSMA tumor model (comparison and timepoint study); conditions: HT1080.hPSMA tumor, n=3
Method: (§1) HT1080.hPSMA tumor cells were grown to 90% confluence and detached with Trypsin-EDTA 0.05%. Cells were resuspended in Hank's Balanced Salt Solution (HBSS) at a density of 5×10^7 cells/mL. 100 μL of HT1080.hPSMA cells (5×10^6 cells) were injected subcutaneously in the right flank of female athymic Balb/c AnNRj-Foxn1 mice (6 to 8 weeks of age). Tumors were grown until ˜250 mm^3 volume (average).
Comparison study: 0.1 mL of 50 μM solutions (2% DMSO, PBS, 250 nmol/kg) of the four conjugates (1 to 4) were injected intravenously. The animals were sacrificed in groups of 3 after 24 h, and blood and the following organs were extracted: HT1080.hPSMA tumor, heart, lungs, liver, kidney, spleen, stomach. The blood fraction was centrifuged, and the plasma (supernatant) was extracted. The organs were stored at −80° C. before being used for further analysis.
(§2) Timepoint study: 0.1 mL of a 50 μM solution (2% DMSO, PBS, 250 nmol/kg) of conjugate 1 was injected intravenously into the tail vein of the mice. The animals were sacrificed in groups of 3 after 6 h, 24 h, 48 h, and 72 h, and blood and the following organs were extracted: HT1080.hPSMA tumor, heart, lungs, liver, kidney, spleen, stomach. The blood fraction was centrifuged, and the plasma (supernatant) was extracted. The organs were stored at −80° C. before being used for further analysis.
Frozen plasma (50 μL) and mouse tissues (˜50 mg) were thawed, and 500 μL of PBS was added. Samples were kept on ice, and 50 μL solution of internal standard (d8-MMAE, 50 nM) was added. Samples were then homogenized at 4° C. with a tissue lyser for 2 minutes at 30 Hz for 4 cycles. After homogenization, samples were centrifuged (21'000 g, 10 min). Subsequently, 100 μL of supernatants were collected and added to 900 μL of acetonitrile (ACN) to induce protein precipitation. After centrifugation (21'000 g, 10 min), 800 μL of supernatants were collected and dried at room temperature with a vacuum centrifuge. Pellets were then resuspended in 20 μL of an aqueous solution containing 3% ACN and 0.1% of HCOOH, and 5 μL were injected into the UHPLC-MS system. Chromatographic separation was carried out on a Hypersil Gold C18 column (100 mm×2.1 mm, 1.9 μm particle size, 175 Å pore size) column temperature was set at 50° C. and a flow rate of 700 μL/min with a gradient program from 95% A (water+0.1% HCOOH), 5% B (ACN+0.1% HCOOH) to 35% of A in 2.5 minutes, from 35% A to 5% A in 0.4 minutes and 5% A was kept for 1.3 minutes before reconditioning at 95% A. The LC system was coupled to a Q-Exactive mass spectrometer via an Ion Max HESI Source. Ionization was carried out with a spray voltage of 3.5 kV; Sheath gas 40 units; Aux gas 10 units; capillary temperature of 380° C.; Aux gas temperature 450° C.; S-lens RF level 60. The mass spectrometer was operating in targeted Single Ion Monitoring mode (t-SIM) following the molecular ion 718.5113 m/z. The detector was working in positive ionization mode with the following parameters: resolution 70'000 (FWHM at 200 m/z); AGC target of 5×10^4; maximum injection time of 200 ms; isolation window 14 m/z; isolation offset 5 m/z. Peak areas of analytes and internal standards were integrated, and corresponding ratios were calculated. The ratios were then transformed into pmol/g of wet tissue using single-concentration external calibration points and corrected by the total weight of the sample analysed. The percentage of injected dose per gram (% ID/g) was finally calculated by normalizing the value based on the total dose injected into the mouse. Data analysis was performed with Skyline v22.2.0.351.

[2] = system: HT1080.hPSMA xenografts; assay: Payload study and combination therapy with L19-IL2 in HT1080.hPSMA tumor model (tumor volume); conditions: conjugates 250 nmol/kg i.v. days 7 and 11; L19-IL2 2.5 mg/kg i.v. days 8, 10, 12; n=3/4
Method: as §1, with “a” for “a density of”, “cells/mL density.” for “cells/mL.”, “an average volumes of ˜100” for “˜250”, “was reached.” for “volume (average).”
Tumor-bearing mice were randomized into groups of 3 or 4 animals. A 50 μM solution (2% DMSO, 250 nmol/kg; 100 μL) of Conjugate 1, 5, or 6, L19-IL2 (SEQ ID NO: 10, 0.5 mg/mL, 2.5 mg/kg; 100 μL), PBS (100 μL), or L19-IL2 buffer (NaH2PO4 6.7 mM, NaCl 20 mM, KCl 1.8 mM, Mannitol 133 mM, Tween80 0.1% v/v, Glycerol 1% w/v; 100 μL) was injected intravenously (i.e., systemic administration through tail-vein) with the following schedule:
Groups of Conjugates 1, 5, or 6: two separate injections with a 3-day break in between (day 7 and day 11 after tumor implantation).
L19-IL2 group: three separate injections with a 1-day break in between (day 8, day 10, and day 12 after tumor implantation).
Combination therapy groups: two separate injections of Conjugate 1, 5, or 6 with a 3-day break in between (day 7 and day 11 after tumor implantation) and three separate injections of L19-IL2 with a 1-day break in between (day 8, day 10, and day 12 after tumor implantation). […]

[3] = system: HT1080.hPSMA tumor; assay: MMAE release at different time points in HT1080.hPSMA tumor model (Conjugate 7 vs Conjugate 1)
Method: as §1, with “a” for “a density of”, “cells/mL density.” for “cells/mL.”
as §2, with “0.1” for “Timepoint study: 0.1”, “of Conjugate 7” for “of conjugate 1”, “sacrificed” for “sacrificed in groups of 3”, “h, or” for “h, and”, “72 h (n=3/group),” for “72 h,”
Frozen plasma (50 μL) and mouse tissues (˜50 mg) were thawed, and 500 μL of PBS was added. Samples were kept on ice, and 50 μL solution of internal standard (d8-MMAE, 50 nM) was added. Samples were then homogenized at 4° C. with a tissue lyser for 2 minutes at 30 Hz for 4 cycles. After homogenization, samples were centrifuged (21'000 g, 10 min). Subsequently, 100 μL of supernatants were collected and added to 900 μL of acetonitrile (ACN) to induce protein precipitation. After centrifugation (21'000 g, 10 min), 800 μL of supernatants were collected and dried at room temperature with a vacuum centrifuge. Pellets were then resuspended in 20 μL of an aqueous solution containing 3% ACN and 0.1% of HCOOH, and 5 μL were injected into the UHPLC-MS system. […] Peak areas of analytes and internal standards were integrated, and corresponding ratios were calculated. The ratios were then transformed into pmol/g of wet tissue using single-concentration external calibration points and corrected by the total weight of the sample analysed. The percentage of injected dose per gram (% ID/g) was finally calculated by normalizing the value based on the total dose injected into the mouse. […]

CC[C@H](C)[C@@H]([C@@H](CC(=O)N1CCC[C@H]1[C@H](OC)[C@@H](C)C(=O)N[C@H](C)[C@@H](O)c1ccccc1)OC)N(C)C(=O)[C@@H](NC(=O)[C@H](C(C)C)N(C)C(=O)OCc1ccc(NC(=O)[C@@H]2CCCN2C(=O)CNC(=O)CCCCCN2C(=O)CC(SC[C@H](N)C(=O)NCCCCCC(=O)NC[C@H]3CC[C@H](C(=O)N[C@@H](Cc4ccc5ccccc5c4)C(=O)NCCCC[C@H](NC(=O)N[C@@H](CCC(=O)O)C(=O)O)C(=O)O)CC3)C2=O)cc1)C(C)C (stereo partly drawn) [Conjugate 1]
Timepoint study of MMAE release ([1]; 6 h, 24 h, 48 h, 72 h after i.v. 250 nmol/kg): stable payload accumulation in the tumors over an extended time | MMAE release in tumor ([1]; 24 hours after intravenous injection, 250 nmol/kg): 4.5 % ID/g | In vivo anti-tumor activity, monotherapy (tumor volume) [2]: slightly lower anti-cancer efficacy as compared to Conjugate 5 | MMAE release at 6 h ([3]; 6 h after i.v. 250 nmol/kg, n=3): 200 pmol/g | MMAE release at highest accumulation point (average) ([3]; 24 h after i.v. 250 nmol/kg, n=3): approx. 300 pmol/g | Time of highest accumulation point of released MMAE ([3]; i.v. 250 nmol/kg, time points 6, 24, 48, 72 h): 24 h
